{"source": "IntAct's records for PubMed 10545448", "parents": {"B1": {"name": "Meiosis-inducing protein 1 (Saccharomyces cerevisiae), P21190 (parent)", "chain": "MQADMHGKLHAALEDGFFLFPFEQQQQPNIYYDTTTDQEDRPCFSFGSTISPRSWHFEKSDKIASSQLQNLVHTQPIHLINPQILFNEEFLNLENIDSQPISKETKTTKDCTMATGPERGKKSSESTRSSSLSSLFSNDESASTFHSSFNNHDNFQKSNRNGDDIDISDTIKYETNTNAQKDIKIFQENFEFNEFPYTQDFYPYTTNYTYSKPTNIHESINSKNTDSYSQYQDQFPPHTDNIHSFNNRHYSNHKSTNCNYYNNTSNNNNASDNVYEADPFIDEPQVPSYYYPLEIAFDVEKSPPPSLQKLNSKELEFLKKLNSKLSRYAAAYSFSSSNDQDYYDKVRFQEISYKFSKTYS", "partner": "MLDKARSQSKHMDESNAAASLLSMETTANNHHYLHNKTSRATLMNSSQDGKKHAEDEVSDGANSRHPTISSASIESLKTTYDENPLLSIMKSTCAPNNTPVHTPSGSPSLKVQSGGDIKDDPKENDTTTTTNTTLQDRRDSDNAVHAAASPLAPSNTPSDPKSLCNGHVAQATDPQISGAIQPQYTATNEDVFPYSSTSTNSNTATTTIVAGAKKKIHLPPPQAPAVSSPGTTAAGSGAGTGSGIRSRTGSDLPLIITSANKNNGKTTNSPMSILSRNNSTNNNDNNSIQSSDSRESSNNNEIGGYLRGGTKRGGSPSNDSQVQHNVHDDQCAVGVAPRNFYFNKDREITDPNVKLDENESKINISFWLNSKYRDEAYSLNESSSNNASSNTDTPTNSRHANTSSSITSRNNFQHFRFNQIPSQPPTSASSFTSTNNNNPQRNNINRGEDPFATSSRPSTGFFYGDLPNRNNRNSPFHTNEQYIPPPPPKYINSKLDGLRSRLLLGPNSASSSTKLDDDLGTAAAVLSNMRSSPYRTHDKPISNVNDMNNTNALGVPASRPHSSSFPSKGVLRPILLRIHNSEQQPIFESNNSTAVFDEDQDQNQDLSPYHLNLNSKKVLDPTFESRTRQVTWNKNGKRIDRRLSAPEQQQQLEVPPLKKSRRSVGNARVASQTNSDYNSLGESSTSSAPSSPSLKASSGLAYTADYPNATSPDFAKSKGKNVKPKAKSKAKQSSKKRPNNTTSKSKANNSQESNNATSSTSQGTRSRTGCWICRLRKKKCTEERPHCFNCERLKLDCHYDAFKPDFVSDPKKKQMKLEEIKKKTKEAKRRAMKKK"}, "B2": {"name": "Meiosis-inducing protein 1 (Saccharomyces cerevisiae), P21190 (parent)", "chain": "B1 chain", "partner": "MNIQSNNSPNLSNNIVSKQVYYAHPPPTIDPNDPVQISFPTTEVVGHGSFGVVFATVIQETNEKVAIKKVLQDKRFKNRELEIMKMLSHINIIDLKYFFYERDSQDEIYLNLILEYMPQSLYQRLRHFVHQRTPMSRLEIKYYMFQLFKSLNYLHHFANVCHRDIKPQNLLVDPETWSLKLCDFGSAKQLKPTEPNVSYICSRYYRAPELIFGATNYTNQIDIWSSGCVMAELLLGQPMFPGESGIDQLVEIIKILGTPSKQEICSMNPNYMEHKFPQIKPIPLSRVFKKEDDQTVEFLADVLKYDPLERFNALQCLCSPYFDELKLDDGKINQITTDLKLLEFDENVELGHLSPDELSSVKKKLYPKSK"}}, "data": [{"variants_of": "B1", "conditions": "with ume6_yeast UME6, P39001", "values": [{"variant": "Y342A;Y343A;S352A;Y353A;S356A;T358A;Y359A;S360A", "effect of a mutation on the interaction": "disrupting interaction strength"}, {"variant": "R347K;S360F", "effect of a mutation on the interaction": "disrupting interaction strength"}, {"variant": "L321F;S360F", "effect of a mutation on the interaction": "decreasing interaction strength"}, {"variant": "L321F", "effect of a mutation on the interaction": "disrupting interaction strength"}, {"variant": "R347K", "effect of a mutation on the interaction": "disrupting interaction strength"}, {"variant": "S352A;S356A;S360A", "effect of a mutation on the interaction": "decreasing interaction strength"}]}, {"variants_of": "B2", "conditions": "with rim11_yeast RIM11, P38615", "values": [{"variant": "Y342A;Y343A;S352A;Y353A;S356A;T358A;Y359A;S360A", "effect of a mutation on the interaction": "with no effect"}, {"variant": "R347K;S360F", "effect of a mutation on the interaction": "with no effect"}, {"variant": "L321F;S360F", "effect of a mutation on the interaction": "with no effect"}]}, {"variants_of": "B2", "conditions": "with rim11_yeast RIM11, P38615", "remark": "another data set of the same source", "values": [{"variant": "R347K;S360F", "effect of a mutation on the interaction": "decreasing interaction strength"}, {"variant": "L321F;S360F", "effect of a mutation on the interaction": "decreasing interaction strength"}, {"variant": "R347K", "effect of a mutation on the interaction": "disrupting interaction strength"}, {"variant": "L321F", "effect of a mutation on the interaction": "disrupting interaction strength"}]}]}
